This is an account of results in the supplement of paper PMC12764529.

± gives the half width of the 95% confidence interval.

Data set [1] in a line: folding stability dG unfold (combined trypsin and chymotrypsin); higher = more stable. The procedure, abridged: (§1)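 Sequencing followed digestion of designed mini-proteins with trypsin and chymotrypsin, each at 11 concentrations in threefold dilutions together with a no-protease condition. The mini-proteins were under 80 residues, had no cysteine, sat in a PA-tagged cDNA display construct, and were kept only if AlphaFold2 dimer inter-PAE was above 15. From the counts, Bayesian fitting gave K50, and unfolding free energy was derived against a sequence-predicted unfolded-state K50 and a shared folded-state K50, per protease or combined.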

Data set [2] in a line: folding stability dG unfold from trypsin proteolysis; higher = more stable. The procedure, abridged:
as §1

Data set [3] in a line: folding stability dG unfold from chymotrypsin proteolysis; higher = more stable. In a few lines: as §1

“SAGGVEELAKELAERLREELERRLGVEKVEVVDVEVVEVDEETGTVTVRITVRLPDGELLELELELHLDSAG [r5_20_TrROS_Hall]”: the “folding stability dG unfold” value in data set [1] was found to be 3.39 ± 0.15 kcal/mol; in data set [2], 3.47 ± 0.17 kcal/mol; in data set [3], 3.08 ± 0.13 kcal/mol.
Regarding “SAGGVERDPPGKNVYYVEIEIKIEIRDPNNGKPLEIPVPITYPFKSPADALEQMRRQARNLAEKLLNSAGGS [r16_624_TrROS]”, the “folding stability dG unfold” value in data set [1] was found to be 2.03 ± 0.13 kcal/mol; in data set [2], 1.78 ± 0.041 kcal/mol; in data set [3], 2.18 ± 0.1 kcal/mol.
On to “SAGGVIELPNAGLPEFLAFLKEAAEKGIPNVTVILTGPSKPYLAIYDPKKNIVTVLHPNGKTYTFKASAGGS [r16_481_TrMRF]”, for which the “folding stability dG unfold” value in data set [1] worked out at 2.91 ± 0.12 kcal/mol; in data set [2], 2.76 ± 0.15 kcal/mol; in data set [3], 2.99 ± 0.058 kcal/mol.
Taken in the same sequence, the figures for “SAGGVIPPSATITTLKTYPDGTVLTNVTFPDGTPMTVTLTRETLPDGSVVLKFTNPATGEELATFPVSSAGG [r13_527_JUSTAS]” were 2.15 ± 0.088 kcal/mol, 1.93 ± 0.063 kcal/mol and 2.15 ± 0.062 kcal/mol.
Turning to “SAGGVITAVESTTTPLPNGTVLVTLTLKEGGETLQVTVTVSPDGVTVTTPSGKTSTIAPEELASLLPSAGGS [r16_593_JUSTAS]”, the “folding stability dG unfold” value turned out to be 1.34 ± 0.076 kcal/mol in data set [1], 1.31 ± 0.025 kcal/mol in data set [2] and 1.39 ± 0.025 kcal/mol in data set [3].
For the sequence “SAGGVLETKLPGGVSVTYSETPFVKDGREYLVLPAAAGDPAGAPFVTTTVVEPETGEVLETTETPLASAGGS [r8_492_JUSTAS]”, the “folding stability dG unfold” value in data set [1] came out at 0.465 ± 0.1 kcal/mol; in data set [2] it was 0.331 ± 0.059 kcal/mol; in data set [3], 0.536 ± 0.13 kcal/mol.
Taken in the same sequence, the figures for “SAGGVPVSVEVDPRGEVTITNPVNGSSLVIPVPPDAEVTVVSLPPSSVTVRVTVGGEERDIVLPPSSVSAGG [r19_309_JUSTAS]” were 0.621 ± 0.065 kcal/mol, 0.587 ± 0.023 kcal/mol and 0.662 ± 0.034 kcal/mol.
On to “SAGGVRKIEFRIDLPDPNVTIEEIVERILKELGLKPEEAIVEVLKIEEVEDEDGIPHIRIDVKIYVPDKSAG [r5_528_TrMRF]”, for which the “folding stability dG unfold” value came out at 3.21 ± 0.059 kcal/mol in data set [1], 3.54 ± 0.1 kcal/mol in data set [2] and 2.98 ± 0.031 kcal/mol in data set [3].
Take “SAGGVTIEVDPGTGKVTITFPDGSSATIEVPPDERAVLFVKEGEGEVEVALVREDDPEALEKALELGSAGGS [r16_623_TrMRF]”: the “folding stability dG unfold” value in data set [1] was 1.05 ± 0.2 kcal/mol; in data set [2], 0.811 ± 0.059 kcal/mol; in data set [3], 1.34 ± 0.058 kcal/mol.
Taken in the same sequence, the figures for “SAGGVTTPVTFTVPPSLDPEEAAERIAKELEEELKAASNKKVKVTVESVTPLPDGTLRVTVVITTEPSAGGS [r8_156_JUSTAS]” were 3.31 ± 0.086 kcal/mol, 3.76 ± 0.2 kcal/mol and 3.14 ± 0.067 kcal/mol.
For the sequence “SAGGVVTVTVDPNSDKVTAYTTRTVTVYFNELGIWKEEEVTDVVTMSQEELEKLKEESGLPMVIVGASAGGS [r8_337_JUSTAS]”, the “folding stability dG unfold” value in data set [1] was 0.238 ± 0.094 kcal/mol; in data set [2], 0.216 ± 0.061 kcal/mol; in data set [3], -0.0773 ± 0.19 kcal/mol.
Regarding “SAGGVYVIKIKFEFGDGLKAELFIMFQSWEQAKEQAENLARNHGLRIDEIEVVPIKPMPPPDPDDQKSAGGS [r8_364_TrROS]”, the results for the “folding stability dG unfold” value in data set [1], in data set [2] and in data set [3] were 3.63 ± 0.29 kcal/mol, 2.46 ± 0.14 kcal/mol and 4.13 ± 0.14 kcal/mol, respectively.
In the same order, the values of “SAGGWIPPGAEIEIDEIGPDGTITVKIKYPDGKPMSITMRRQRDKDGKRYIELYFPGSGRPIASFPIKSAGG [r13_527_TrROS]” are 1.78 ± 0.09 kcal/mol, 1.84 ± 0.03 kcal/mol and 1.57 ± 0.08 kcal/mol.
With “SAGGWLWVRTNGRIFVIEIKTEMKWEYDPGDPGQWRMDMEPEIEVRPIPPDDIKPLPPVDEDDPENKSAGGS [r16_395_TrROS]”, the “folding stability dG unfold” value turned out to be 1.87 ± 0.32 kcal/mol in data set [1], 1.68 ± 0.13 kcal/mol in data set [2] and 2.09 ± 0.27 kcal/mol in data set [3].
In the same order, the values of “SAGGWRIKLERDPENGKIKVSIERSPNEGYATVEVKLPNGKPLEIPGPMDSPDEMEEKARDYIKKLLSAGGS [r16_319_TrROS]” are 0.991 ± 0.1 kcal/mol, 0.777 ± 0.09 kcal/mol and 1.01 ± 0.086 kcal/mol.
As for “SAGGWTIEEIIDAIREAKENGPGQKVEIEIPFGGGPVRVSIEVPPDGRVKIEIQYDNKPIWEIEIPVSAGGS [r16_611_TrROS]”, the “folding stability dG unfold” value in data set [1] stood at 2.02 ± 0.15 kcal/mol; in data set [2] it was 1.98 ± 0.14 kcal/mol; in data set [3], 2.12 ± 0.081 kcal/mol.
Taken in the same sequence, the figures for “SAGGWYERIKEWAKDKGLKVDIEPTSFDPPNGWMPFEIEFPNGKKIDITFPDSPDQMLWMIRNMIKNSAGGS [r16_153_TrROS]” were 2.05 ± 0.15 kcal/mol, 1.63 ± 0.057 kcal/mol and 2.16 ± 0.09 kcal/mol.
Turning to “SAGGWYLRIEPDDGRELEIPMNDPGLPLEDLADKLMKDMPGPMKIKVEFYHPNKPVEHTIKIPLPKNSAGGS [r16_216_TrROS]”, the “folding stability dG unfold” value worked out at 0.423 ± 0.28 kcal/mol in data set [1], 0.443 ± 0.11 kcal/mol in data set [2] and 0.436 ± 0.33 kcal/mol in data set [3].
Take “SAGGYEKKTIRIEATPEELENLLKELREKYPDLKVEVKVVKVEKKENDPNVSPKDKKVYLEITVVKPKPSAG [r5_437_TrROS_Hall]”: the “folding stability dG unfold” value in data set [1] was determined as 1.88 ± 0.17 kcal/mol; in data set [2], 1.39 ± 0.12 kcal/mol; in data set [3], 1.89 ± 0.13 kcal/mol.
On to “SAGGYYKDPNGKPREPVPKVEPKPVTITFPNLTPEQADYLADYLRDLGLEVKYDPENGMLTAEFWIYSAGGS [r16_765_TrROS]”, for which the “folding stability dG unfold” value in data set [1] was found to be 1.71 ± 0.11 kcal/mol; in data set [2], 1.23 ± 0.033 kcal/mol; in data set [3] it was 1.95 ± 0.077 kcal/mol.
As to “SAGHQIVKRLARHMQEQGYPIEVDVTVEPYPDDGWVEITIDIEMQNEDGKWQPIGPITIYIPKEDANKLSAG [r5_413_TrROS]”, the “folding stability dG unfold” value in data set [1] stood at 1.34 ± 0.17 kcal/mol; in data set [2], 0.914 ± 0.07 kcal/mol; in data set [3] it was 1.44 ± 0.11 kcal/mol.
Taken in the same sequence, the figures for “SAGIEEVAKEIAETLEELLPSEYKILDAKAIPLPDDVVIVPITVQKFDPNGKPLGELQFVVVIPPGEASAGG [r19_28_TrMRF]” were 0.636 ± 0.062 kcal/mol, 0.639 ± 0.068 kcal/mol and 0.519 ± 0.096 kcal/mol.
Taken in the same sequence, the figures for “SAGIEIRIEAYMPWEEARDQVKEIARWLMSMFPGFKVDIDVDHEPVPNNMWVATVTIKIEPLPPGQPIFSAG [r5_936_TrROS]” were 4.56 ± 0.12 kcal/mol, 3.83 ± 0.1 kcal/mol and 4.79 ± 0.066 kcal/mol.
Taken in the same sequence, the figures for “SAGIKIEVEPSPGNGWYRIRIENPDLRKKLNEKFPDLKEITFPFKNPEDMPWEEMREHAIDQIKEFLPSAGG [r19_298_TrROS]” were 0.64 ± 0.24 kcal/mol, -0.197 ± 0.29 kcal/mol and 1.03 ± 0.15 kcal/mol.
Consider “SAGIKPGDPVVIKFNVPPELREKIKEAFEKPGYEYEFHPETGEVTVVAPAENIDELMKLPYIEEIVPGSAGG [r19_212_TrMRF]”, for which the entries for the “folding stability dG unfold” value in data set [1], in data set [2] and in data set [3] were 0.817 ± 0.15 kcal/mol, 0.891 ± 0.052 kcal/mol and 0.768 ± 0.1 kcal/mol, respectively.
Taken in the same sequence, the figures for “SAGIPLGPEQLRALAEELAEEFKKKLAEELGLSPEDIKLLSIRRLPDGSIEIELEIPDRTYRYTFPLPDSAG [r5_565_JUSTAS]” were 3.1 ± 0.16 kcal/mol, 3.2 ± 0.17 kcal/mol and 3.02 ± 0.042 kcal/mol.
As for “SAGIPPDDPNDIYIVPVKITPVPDGSLQIEIIIVWPDGEVYTMEQEFDPNGNIEEMDMEPMPPEDIKESAGG [r19_285_TrROS]”, the figures for the “folding stability dG unfold” value in data set [1], in data set [2] and in data set [3] were 1.2 ± 0.14 kcal/mol, 1.1 ± 0.1 kcal/mol and 1.31 ± 0.081 kcal/mol, respectively.
In the same order, the values of “SAGKAELVEVTIEGDKLTALFKIPETGGLVLAEAEFDNGIVKVKAKFYSPSGKPLGEAEFTLPASELKLSAG [r5_308_TrMRF]” are 2.48 ± 0.12 kcal/mol, 1.83 ± 0.1 kcal/mol and 2.73 ± 0.067 kcal/mol.
With “SAGKAIFTVVPIIPKTGKKYSISKFEITLKEGEKIPIKAIADKIPPKNYIVETEIHPDHIHVTVYVLDGSAG [r5_269_TrMRF]”, the “folding stability dG unfold” value in data set [1] worked out at 1.25 ± 0.17 kcal/mol; in data set [2], 0.665 ± 0.08 kcal/mol; in data set [3], 1.61 ± 0.11 kcal/mol.
Regarding “SAGKALSPEELARYVREKYGLPADAPITIEEVPGKYTLSLPDLRVEVTVTDDTTTVTLRPPDPGPEAALSAG [r5_190_JUSTAS]”, the “folding stability dG unfold” value in data set [1] turned out to be 1.42 ± 0.14 kcal/mol; in data set [2], 0.97 ± 0.044 kcal/mol; in data set [3], 1.57 ± 0.16 kcal/mol.
In the same order, the values of “SAGKARIVEYDEESGTITIEVDGKTIEIELAPGETAEITLEENEDGTLTLTITVNGKTLTLTIPLDDLKSAG [r5_500_TrROS_Hall]” are 3.15 ± 0.13 kcal/mol, 2.61 ± 0.18 kcal/mol and 3.47 ± 0.12 kcal/mol.
Regarding “SAGKEEAEKNKIAVLHLELYHPDGTKVSITIAFHPDKPEAVIEELTKLGYPLKDLIKNHPDLKILKIEPSAG [r5_430_TrMRF]”, the “folding stability dG unfold” value in data set [1] was 1.71 ± 0.11 kcal/mol; in data set [2], 1.71 ± 0.092 kcal/mol; in data set [3], 1.57 ± 0.044 kcal/mol.
Taken in the same sequence, the figures for “SAGKEKKPPKKVTLTLEIEIEVPEEEEEKAKELAEELEEELRKLGIEKVEVEYDKETKRVRIRVTVVLPSAG [r5_512_TrROS_Hall]” were 2.74 ± 0.36 kcal/mol, 2.22 ± 0.086 kcal/mol and 3.01 ± 0.094 kcal/mol.
Take “SAGKEKVLVIPVKVKPGEKIVVKVPSNSKILIIDLESGEIYEIDVPENVEPVFILPENKEYLIAVVFKSAGG [r19_78_TrMRF]”: the “folding stability dG unfold” value in data set [1] stood at 3.38 ± 0.11 kcal/mol; in data set [2] it was 2.66 ± 0.081 kcal/mol; in data set [3], 3.92 ± 0.086 kcal/mol.
For the sequence “SAGKEVEIKIEIVIKMTPEELKKLAEELAKKLKEAGFEVEVTVEEKEVNGELYAVITVTVRLPPGAKPPSAG [r5_217_TrROS_Hall]”, the “folding stability dG unfold” value was determined as 3.67 ± 0.42 kcal/mol in data set [1], 2.81 ± 0.36 kcal/mol in data set [2] and 4.11 ± 0.26 kcal/mol in data set [3].
In the case of “SAGKFKIVKVEIKDGKITITVKNEKTGELVKKEITFDKKTKKLKIKLYNKNGKLIKEETKTLSLEELKKSAG [r5_308_TrROS_Hall]”, the “folding stability dG unfold” value in data set [1] was determined as 2.49 ± 0.096 kcal/mol; in data set [2] it was 2.06 ± 0.093 kcal/mol; in data set [3], 2.66 ± 0.071 kcal/mol.
